Assay results from US20230357429A1 (JANUX THERAPEUTICS, published 2023).
Where a chain is given by its changes, count along the chain named. Numbers in names are those of the source. Where no end group is shown, it is not given here.

T1: Human TROP2 ECD (31-274 AA), biotinylated (human, UniProt P09758 31-274, biotinylated (site not stated))
T1 construct: captured on neutravidin plates; also called TROP2-biotin; Trop2-biotin
T1 sequence: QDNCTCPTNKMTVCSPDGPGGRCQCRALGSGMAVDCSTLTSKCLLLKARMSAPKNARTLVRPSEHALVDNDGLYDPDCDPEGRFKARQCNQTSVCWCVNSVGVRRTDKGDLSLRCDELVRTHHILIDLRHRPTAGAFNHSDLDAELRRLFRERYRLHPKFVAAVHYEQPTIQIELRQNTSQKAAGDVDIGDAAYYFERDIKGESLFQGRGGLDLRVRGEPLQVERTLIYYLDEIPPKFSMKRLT

T2: Peptide-29 (cysteine pairing not given here; also: biotinylated, site not given here)
T2 peptide: SYLVCVKNVYCWTA

T3: Peptide-3 (cysteine pairing not given here; also: biotinylated, site not given here)
T3 peptide: IDFCMLYNWPICAG

T4: Peptide-52 (cysteine pairing not given here; also: biotinylated, site not given here)
T4 peptide: VDFCYQYAWPVCSTGD

T5: Peptide-46 (cysteine pairing not given here; also: biotinylated, site not given here)
T5 peptide: VEFCAIYSWPICKI

T6: Peptide-54 (cysteine pairing not given here; also: biotinylated, site not given here)
T6 peptide: VDFCYRYSWPVCWA

T7: Peptide-57 (cysteine pairing not given here; also: biotinylated, site not given here)
T7 peptide: IDFCYRYGWPVCQT

T8: Peptide-43 (cysteine pairing not given here; also: biotinylated, site not given here)
T8 peptide: VDFCALYHWPICYQ

T9: Peptide-45 (cysteine pairing not given here; also: biotinylated, site not given here)
T9 peptide: VDFCYQYGWPICSRVD

T10: Peptide-47 (cysteine pairing not given here; also: biotinylated, site not given here)
T10 peptide: VDFCYQYGWPICSRLY

T11: Peptide-49 (cysteine pairing not given here; also: biotinylated, site not given here)
T11 peptide: IDFCLLYKWPVCEL

T12: Peptide-60 (cysteine pairing not given here; also: biotinylated, site not given here)
T12 peptide: VDFCNLYHWPICAI

T13: Peptide-48 (cysteine pairing not given here; also: biotinylated, site not given here)
T13 peptide: VDFCYMYKWPVCYP

T14: Peptide-56 (cysteine pairing not given here; also: biotinylated, site not given here)
T14 peptide: VDFCYQYGWPICSRV

T15: Peptide-53 (cysteine pairing not given here; also: biotinylated, site not given here)
T15 peptide: IDFCRVYDWPVCSL

T16: Peptide-55 (cysteine pairing not given here; also: biotinylated, site not given here)
T16 peptide: VDFCYKYNWPICSR

T17: Peptide-50 (cysteine pairing not given here; also: biotinylated, site not given here)
T17 peptide: VDFCAIYSWPICKI

T18: Peptide-8 (cysteine pairing not given here; also: biotinylated, site not given here)
T18 peptide: VDFCGLYHWPICYQ

T19: Peptide-51 (cysteine pairing not given here; also: biotinylated, site not given here)
T19 peptide: VDFCGLYHWPICYQV

T20: Peptide-59 (cysteine pairing not given here; also: biotinylated, site not given here)
T20 peptide: VDFCALYNWPVCAI

T21: Peptide-61 (cysteine pairing not given here; also: biotinylated, site not given here)
T21 peptide: VDFCALYHWPVCGL

T22: Peptide-31 (cysteine pairing not given here; also: biotinylated, site not given here)
T22 peptide: YSLVCVKNLYCWNL

T23: Peptide-24 (cysteine pairing not given here; also: biotinylated (site not given here))
T23 peptide: SVLFCVKNLYCWVT

T24: Peptide-28 (cysteine pairing not given here; also: biotinylated, site not given here)
T24 peptide: NYLLCVKNLYCWIV

T25: Peptide-25 (cysteine pairing not given here; also: biotinylated (site not given here))
T25 peptide: VDFCKIYSWPVCHQ

B1: TBD-6 (LC I93A) (Fab, V domains shown)
VH: QVQLQQSGSELKKPGASVKVSCKASGYTFTNYGMNWVKQAPGQGLKWMGWINTYTGEPTYTDDFKGRFAFSLDTSVSTAYLQISSLKADDTAVYFCARGGFGSSYWYFDVWGQGSLVTVSS
VL: DIQLTQSPSSLSASVGDRVSITCKASQDVSIAVAWYQQKPGKAPKLLIYSASYRYTGVPDRFSGSGSGTDFTLTISSLQPEDFAVYYCQQHYATPLTFGAGTKVEIKR
notes: Fab; also called LC I93A mutant
B2: TBD-11 (HC R98A) (Fab, V domains shown)
VH: B1 VH with R98A
VL: B1 VL with A93I
notes: Fab; also called HC R98A mutant
B3: TBD-1 wt (Fab, V domains shown)
VH: B1 VH
VL: B1 VL with A93I
notes: Fab; the heavy chain entry is VH-CH1; also called wild-type anti-TROP2 Fab (hRS7); TROP2 Fab
B4: TBD-21 (HC F108A) (Fab, V domains shown)
VH: B1 VH with F108A
VL: B1 VL with A93I
notes: Fab; also called HC F108A mutant
B5: TBD-17 (HC S104A) (Fab, V domains shown)
VH: B1 VH with S104A
VL: B1 VL with A93I
notes: Fab; also called HC S104A mutant

biological target: T1, Human TROP2 ECD (31-274 AA), …; test: ELISA, Fab on captured biotin-TROP2

Row | EC50 | Binder
1 | 0.3 nM | B1
2 | 3.4 nM | B2

Biological target: T2, Peptide-29
Test: ELISA: biotinylated peptide captured on neutravidin plate, Fab titrated, HRP secondary antibody
Procedure: (§1) Binding was measured in a standard ELISA format. […] Bound TBDs were detected using a standard horse radish peroxidase conjugate secondary antibody. The ELISA signal was plotted versus the log-scale concentration of TBD. The concentrations of TBD required to observe half maximal binding signal (EC₅₀s) were calculated using Graphpad Prism software.

Row | binding result | Binder
3 | binds | B2

Biological target: T3, Peptide-3
Test: ELISA, Fab on captured biotin-peptide
Procedure: as §1

Row | EC50 | Binder
4 | 91.5 nM | B3
5 | 12.5 nM | B1
6 | 296 nM | B2

Biological target: T4, Peptide-52
Test: ELISA, Fab on captured biotin-peptide
Procedure: as §1

Row | EC50 | Binder
7 | 127 nM | B3
8 | 39.3 nM | B1

Biological target: T5, Peptide-46
Test: ELISA, Fab on captured biotin-peptide
Procedure: as §1

Row | EC50 | Binder
9 | 668 nM | B3
10 | 102 nM | B1

Biological target: T6, Peptide-54
Test: ELISA, Fab on captured biotin-peptide
Procedure: as §1

Row | EC50 | Binder
11 | 63.5 nM | B3
12 | 30 nM | B1
13 | 147 nM | B2

Biological target: T7, Peptide-57
Test: ELISA, Fab on captured biotin-peptide
Procedure: as §1

Row | EC50 | Binder
14 | 25.7 nM | B3
15 | 9.2 nM | B1
16 | 85.6 nM | B2

Biological target: T8, Peptide-43
Test: ELISA, Fab on captured biotin-peptide
Procedure: as §1

Row | EC50 | Binder
17 | 28.6 nM | B3
18 | 5.3 nM | B1
19 | 43.6 nM | B2

Biological target: T9, Peptide-45
Test: ELISA, Fab on captured biotin-peptide
Procedure: as §1

Row | EC50 | Binder
20 | 50.8 nM | B3
21 | 32.6 nM | B1
22 | 138 nM | B2

Biological target: T10, Peptide-47
Test: ELISA, Fab on captured biotin-peptide
Procedure: as §1

Row | EC50 | Binder
23 | 113 nM | B3
24 | 79.9 nM | B1
25 | 304 nM | B2

Biological target: T11, Peptide-49
Test: ELISA, Fab on captured biotin-peptide
Procedure: as §1

Row | EC50 | Binder
26 | 296 nM | B3
27 | 18.3 nM | B1
28 | 130 nM | B2

Biological target: T12, Peptide-60
Test: ELISA, Fab on captured biotin-peptide
Procedure: as §1

Row | EC50 | Binder
29 | 47.8 nM | B3
30 | 7.7 nM | B1
31 | 60.4 nM | B2

Biological target: T13, Peptide-48
Test: ELISA, Fab on captured biotin-peptide
Procedure: as §1

Row | EC50 | Binder
32 | 21.5 nM | B3
33 | 12.2 nM | B1
34 | 42.4 nM | B2

Biological target: T14, Peptide-56
Test: ELISA, Fab on captured biotin-peptide
Procedure: as §1

Row | EC50 | Binder
35 | 52.8 nM | B3
36 | 33.3 nM | B1
37 | 127 nM | B2

Biological target: T15, Peptide-53
Test: ELISA, Fab on captured biotin-peptide
Procedure: as §1

Row | EC50 | Binder
38 | 45.3 nM | B3
39 | 4.4 nM | B1
40 | 32.5 nM | B2

Biological target: T16, Peptide-55
Test: ELISA, Fab on captured biotin-peptide
Procedure: as §1

Row | EC50 | Binder
41 | 15.7 nM | B3
42 | 6.1 nM | B1
43 | 36.8 nM | B2

Biological target: T17, Peptide-50
Test: ELISA, Fab on captured biotin-peptide
Procedure: as §1

Row | EC50 | Binder
44 | 96.2 nM | B3
45 | 21.9 nM | B1
46 | 35.5 nM | B2

Biological target: T18, Peptide-8
Test: ELISA, Fab on captured biotin-peptide
Procedure: as §1

Row | EC50 | Binder
47 | 55.6 nM | B3
48 | 12.2 nM | B1
49 | 319 nM | B2

Biological target: T19, Peptide-51
Test: ELISA, Fab on captured biotin-peptide
Procedure: as §1

Row | EC50 | Binder
50 | 45.1 nM | B3
51 | 13.5 nM | B1
52 | 244 nM | B2

Biological target: T20, Peptide-59
Test: ELISA, Fab on captured biotin-peptide
Procedure: as §1

Row | EC50 | Binder
53 | 61.1 nM | B3
54 | 5.4 nM | B1
55 | 92.8 nM | B2

Biological target: T21, Peptide-61
Test: ELISA, Fab on captured biotin-peptide
Procedure: as §1

Row | EC50 | Binder
56 | 191 nM | B3
57 | 11.8 nM | B1
58 | 272 nM | B2

Biological target: T2, Peptide-29
Test: ELISA, Fab on captured biotin-peptide
Procedure: as §1

Row | EC50 | Binder
59 | 6.7 nM | B3
60 | 23.4 nM | B4
61 | 43.8 nM | B1
62 | 24.8 nM | B5

Biological target: T22, Peptide-31
Test: ELISA, Fab on captured biotin-peptide
Procedure: as §1

Row | EC50 | Binder
63 | 42.1 nM | B3
64 | 791 nM | B1
65 | 164 nM | B5

Biological target: T23, Peptide-24
Test: ELISA, Fab on captured biotin-peptide
Procedure: as §1

Row | EC50 | Binder
66 | 142 nM | B4
67 | 133 nM | B5

Biological target: T24, Peptide-28
Test: ELISA, Fab on captured biotin-peptide
Procedure: as §1

Row | EC50 | Binder
68 | 146 nM | B4
69 | 681 nM | B1
70 | 247 nM | B5

Biological target: T25, Peptide-25
Test: ELISA, Fab on captured biotin-peptide
Procedure: as §1

Row | EC50 | Binder
71 | 48.2 nM | B3
72 | 48.4 nM | B4
73 | 38.3 nM | B1
74 | > 1000 nM | B2
75 | 38.8 nM | B5

Biological target: T18, Peptide-8
Test: ELISA, Fab on captured biotin-peptide
Remark: another data set of the same source
Procedure: as §1

Row | EC50 | Binder
76 | 40.2 nM | B3
77 | 13 nM | B4
78 | 18.8 nM | B1
79 | 156 nM | B2
80 | 8.2 nM | B5

biological target: T1, Human TROP2 ECD (31-274 AA), …; test: ELISA, Fab on captured biotin-TROP2; remark: another data set of the same source

Row | EC50 | Binder
81 | 4.2 nM | B4
82 | 0.3 nM | B1
83 | 3.4 nM | B2
84 | 0.3 nM | B5

biological target: T1, Human TROP2 ECD (31-274 AA), …; test: ELISA, Fab on captured biotin-TROP2; remark: another data set of the same source

Row | EC50 | Binder
85 | 4.2 nM | B4
86 | 0.3 nM | B1
87 | 3.4 nM | B2
88 | 0.3 nM | B5
